Measured values reported in publication PMC3592468.

Substrate: C[C@@H](O)[C@H](N)C(=O)O
Assay: purified protein
Format: biochemical, Saccharomyces cerevisiae
Details: 2.5 mM ATP, 2 mM PPi, 10 mM MgCl2, pH 7.5, 30 °C, no tRNA

B1: ScThrRS (Saccharomyces cerevisiae S288C) (protein)
chain: MSASEAGVTEQVKKLSVKDSSNDAVKPNKKENKKSKQQSLYLDPEPTFIEERIEMFDRLQKEYNDKVASMPRVPLKIVLKDGAVKEATSWETTPMDIAKGISKSLADRLCISKVNGQLWDLDRPFEGEANEEIKLELLDFESDEGKKVFWHSSAHVLGESCECHLGAHICLGPPTDDGFFYEMAVRDSMKDISESPERTVSQADFPGLEGVAKNVIKQKQKFERLVMSKEDLLKMFHYSKYKTYLVQTKVPDGGATTVYRCGKLIDLCVGPHIPHTGRIKAFKLLKNSSCYFLGDATNDSLQRVYGISFPDKKLMDAHLKFLAEASMRDHRKIGKEQELFLFNEMSPGSCFWLPHGTRIYNTLVDLLRTEYRKRGYEEVITPNMYNSKLWETSGHWANYKENMFTFEVEKETFGLKPMNCPGHCLMFKSRERSYRELPWRVADFGVIHRNEFSGALSGLTRVRRFQQDDAHIFCTHDQIESEIENIFNFLQYIYGVFGFEFKMELSTRPEKYVGKIETWDAAESKLESALKKWGGNWEINAGDGAFYGPKIDIMISDALRRWHQCATIQLDFQLPNRFELEFKSKDQDSESYERPVMIHRAILGSVERMTAILTEHFAGKWPFWLSPRQVLVVPVGVKYQGYAEDVRNKLHDAGFYADVDLTGNTLQKKVRNGQMLKYNFIFIVGEQEMNEKSVNIRNRDVMEQQGKNATVSVEEVLKQLRNLKDEKRGDNVLA
**Q.** For B1, which Km is on record?
**A.** Its Km is 210 ± 20 µM.

**Q.** And the kcat?
**A.** The kcat was 1.72 ± 0.21 s⁻¹.

**Q.** And the kcat/Km?
**A.** Its kcat/Km is 8190 M⁻¹ s⁻¹.
